The labels stand for the following.
B1: Re-complexed Ac-Nle-Ala-His-D-Phe-Cys-Arg-Trp-NH2 (peptide)
peptide: Ac-[Nle]AH[dF]CRW-NH2
modifications: bridge (positions not given here) via ReOCl3(PPh3)2; also: oxorhenium(V) metal complex
B2: Re-complexed Ac-Nle-Ala-His-Cys-D-Phe-Arg-Trp-NH2 (peptide)
peptide: Ac-[Nle]AHC[dF]RW-NH2
modifications: bridge (positions not given here) via ReOCl3(PPh3)2; also: oxorhenium(V) metal complex
B3: Re-complexed Ac-Nle-Ala-Cys-His-D-Phe-Arg-Trp-NH2 (peptide)
peptide: Ac-[Nle]ACH[dF]RW-NH2
modifications: bridge (positions not given here) via ReOCl3(PPh3)2; also: oxorhenium(V) N3S1 metal chelate (X-X-Cys)
B4: Re-complexed Ac-Nle-Ala-His-D-Phe-Arg-Trp-Cys-NH2 (peptide)
peptide: Ac-[Nle]AH[dF]RWC-NH2
modifications: bridge (positions not given here) via ReOCl3(PPh3)2; also: oxorhenium(V) metal complex
B5: Re-complexed Ac-Nle-Ala-His-D-Phe-Arg-Cys-Trp-NH2 (peptide)
peptide: XAHFRCW
modifications: N-terminal acetyl; X at 1 = Nle; D-Phe at 4; Cys 6 complexed to a rhenium-oxo (Re) metal ion; C-terminal amide
B6: Re-complexed Caca-D-Trp-Ile-Thr-Dap-Cys-Ala-Pro-Orn-NH2 (peptide)
peptide: Cyclohexylacetyl-[dW]IT[Dap]CAP[Orn]-NH2
modifications: not fully specified (bridges); printed as Caca-D-Trp-Ile-*Thr-Dap-Cys*-Ala-Pro-Orn-NH₂; numbers in words are those of the source; also: Cys6 complexed to rhenium-oxo (Re=O)
B7: Re-complexed D-Chg-D-Trp-Cys-Ile-Thr-Dap-Ala-Pro-Orn-NH2 (peptide)
peptide: [dChg][dW]CIT[Dap]AP[Orn]-NH2
modifications: bridge (positions not given here); not fully specified (bridges); printed as Re-complexed D-Chg-D-Trp-Cys-Ile-Thr-Dap-Ala-Pro-Orn-NH2; also: oxorhenium(V) metal complex
B8: Re-complexed Caca-D-Trp-Ile-Thr-Dap-Ala-Ala-Orn-Cys-NH2 (peptide)
peptide: Cyclohexylacetyl-[dW]IT[Dap]AA[Orn]C-NH2
modifications: numbers in words are those of the source; also: rhenium-oxo (Re(V)=O) complex at Cys9
B9: Re-complexed Caca-D-Trp-Ile-Thr-Dap-Ala-Cys-Pro-Orn-NH2 (peptide)
peptide: Cyclohexylacetyl-[dW]IT[Dap]ACP[Orn]-NH2
modifications: not fully specified (bridges); printed as Caca-D-Trp-Ile-Thr-*Dap-Ala-Cys*-Pro-Orn-NH₂; numbers in words are those of the source; also: Cys7 complexed to rhenium-oxo (Re=O)
B10: Re-complexed Caca-D-Trp-Ile-Thr-Dap-Ala-Ala-Cys-Orn-NH2 (peptide)
peptide: Cyclohexylacetyl-[dW]IT[Dap]AAC[Orn]-NH2
modifications: numbers in words are those of the source; also: rhenium-oxo (Re(V)=O) complex at Cys8
B11: Re-complexed Caca-D-Trp-Ile-Cys-Thr-Dap-Ala-Pro-Orn-NH2 (peptide)
peptide: Cyclohexylacetyl-[dW]ICT[Dap]AP[Orn]-NH2
modifications: not fully specified (bridges); printed as Caca-D-*Trp-Ile-Cys*-Thr-Dap-Ala-Pro-Orn-NH₂; numbers in words are those of the source; also: Cys4 complexed to rhenium-oxo (Re=O)
B12: Re-complexed Chg-D-Trp-Cys-Ile-Thr-Dap-Ala-Pro-Orn-NH2 (peptide)
peptide: [Chg][dW]CIT[Dap]AP[Orn]-NH2
modifications: not fully specified (bridges); printed as Re-complexed Chg-D-Trp-Cys-Ile-Thr-Dap-Ala-Pro-Orn-NH2; also: Cys3 complexed to rhenium-oxo (Re=O)
B13: Re-complexed Pmp-D-Trp-Cys-Ile-Thr-Dap-Ala-Pro-Orn-NH2 (peptide)
peptide: {Cyclohexylacetyl(1-SH)}-[dW]CIT[Dap]AP[Orn]-NH2
modifications: not fully specified (bridges); printed as *Pmp-D-Trp-Cys*-Ile-Thr-Dap-Ala-Pro-Orn-NH₂; numbers in words are those of the source; also: Cys3 complexed to rhenium-oxo (Re=O)
B14: Re-complexed Caca-D-Trp-Ile-Thr-Cys-Dap-Ala-Pro-Orn-NH2 (peptide)
peptide: Cyclohexylacetyl-[dW]ITC[Dap]AP[Orn]-NH2
modifications: not fully specified (bridges); printed as Caca-D-Trp-*Ile-Thr-Cys*-Dap-Ala-Pro-Orn-NH₂; numbers in words are those of the source; also: Cys5 complexed to rhenium-oxo (Re=O)
B15: Re-complexed Caca-D-Trp-Ile-Thr-Dap-Ala-Cys-Ala-Orn-NH2 (peptide)
peptide: Cyclohexylacetyl-[dW]IT[Dap]ACA[Orn]-NH2
modifications: not fully specified (bridges); printed as Caca-D-Trp-Ile-Thr-*Dap-Ala-Cys*-Ala-Orn-NH₂; numbers in words are those of the source; also: Cys7 complexed to rhenium-oxo (Re=O)

By % Inhibition is commonly meant the share of the control response that was lost under treatment.

Square brackets hold non-standard residues; d marks the D form. Ends that are not written are not given here. * marks the point of attachment. Cyclohexylacetyl(1-SH) = O=C(CC1(S)CCCCC1)*; Cyclohexylacetyl = O=C(CC1CCCCC1)*; dChg = N[C@@H](C(=O)O)C1CCCCC1; Chg = N[C@H](C(=O)O)C1CCCCC1; Nle = CCCC[C@H](N)C(=O)O; Orn = NCCC[C@H](N)C(=O)O; Dap = NC[C@H](N)C(=O)O

Chain of hMC5-R (human) (P33032 whole entry): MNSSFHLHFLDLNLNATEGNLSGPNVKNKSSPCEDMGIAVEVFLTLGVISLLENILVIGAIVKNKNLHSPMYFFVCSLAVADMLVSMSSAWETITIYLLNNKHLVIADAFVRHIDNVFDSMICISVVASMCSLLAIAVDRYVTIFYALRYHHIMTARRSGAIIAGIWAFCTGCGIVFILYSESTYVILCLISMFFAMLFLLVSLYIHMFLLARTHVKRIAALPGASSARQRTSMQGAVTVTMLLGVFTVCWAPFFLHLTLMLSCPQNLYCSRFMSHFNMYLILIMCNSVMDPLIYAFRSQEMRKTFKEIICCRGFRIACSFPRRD
Chain of hMC4-R (human) (P32245 whole entry): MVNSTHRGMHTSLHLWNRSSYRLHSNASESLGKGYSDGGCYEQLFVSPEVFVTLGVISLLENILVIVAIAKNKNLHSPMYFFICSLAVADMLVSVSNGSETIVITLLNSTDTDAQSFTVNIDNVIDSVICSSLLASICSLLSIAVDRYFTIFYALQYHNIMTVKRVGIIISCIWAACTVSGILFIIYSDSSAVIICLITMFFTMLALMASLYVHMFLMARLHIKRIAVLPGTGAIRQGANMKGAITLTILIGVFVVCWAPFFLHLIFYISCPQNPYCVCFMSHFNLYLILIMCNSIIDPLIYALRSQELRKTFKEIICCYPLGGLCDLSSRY
Chain of vasopressin-1 receptor of rat liver cell membranes (rat) (P30560 whole entry): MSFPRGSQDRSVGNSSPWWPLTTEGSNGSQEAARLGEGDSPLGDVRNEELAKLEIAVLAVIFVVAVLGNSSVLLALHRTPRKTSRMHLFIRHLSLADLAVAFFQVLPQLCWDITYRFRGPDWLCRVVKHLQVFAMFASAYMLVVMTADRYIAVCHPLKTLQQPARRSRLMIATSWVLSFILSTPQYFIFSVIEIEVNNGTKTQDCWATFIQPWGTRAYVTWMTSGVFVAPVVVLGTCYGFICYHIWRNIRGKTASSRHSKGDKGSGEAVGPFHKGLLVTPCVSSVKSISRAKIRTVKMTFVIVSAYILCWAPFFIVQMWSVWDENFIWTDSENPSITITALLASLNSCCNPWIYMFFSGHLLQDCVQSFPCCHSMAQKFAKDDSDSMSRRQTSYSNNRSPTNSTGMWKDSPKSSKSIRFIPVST

In one assay the target is hMC3-R (human) (UniProt P41968). Kind of assay: competition with 0.4 nM 125I-NDP-alpha-MSH on hMC3-R membranes, metallopeptide at 1 µM.
Chain of hMC3-R (human) (P41968 whole entry): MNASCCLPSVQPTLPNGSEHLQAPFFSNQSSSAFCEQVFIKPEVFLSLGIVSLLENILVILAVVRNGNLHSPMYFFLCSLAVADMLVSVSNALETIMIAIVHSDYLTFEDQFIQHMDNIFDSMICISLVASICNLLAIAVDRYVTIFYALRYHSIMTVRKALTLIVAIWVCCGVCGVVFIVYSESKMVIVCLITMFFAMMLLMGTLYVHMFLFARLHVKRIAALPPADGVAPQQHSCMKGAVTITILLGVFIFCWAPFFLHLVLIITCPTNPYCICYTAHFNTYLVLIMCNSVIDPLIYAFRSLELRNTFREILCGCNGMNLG
In turn, B1 gave a % Inhibition at 1 µM of 15%.
Molecule B2 returned a % Inhibition at 1 µM of 9%.
Turning to B3, the % Inhibition at 1 µM was found to be 47%.
Still for that read-out and setting: the value for B4 was 70%.

The target of a further assay is MC1-R of B-16 mouse melanoma cells (mouse) (UniProt Q01727). Put plainly: competition with 0.4 nM 125I-NDP-alpha-MSH on B-16 mouse melanoma cell membranes, metallopeptide at 1 µM.
Chain of MC1-R of B-16 mouse melanoma cells (mouse) (Q01727 whole entry): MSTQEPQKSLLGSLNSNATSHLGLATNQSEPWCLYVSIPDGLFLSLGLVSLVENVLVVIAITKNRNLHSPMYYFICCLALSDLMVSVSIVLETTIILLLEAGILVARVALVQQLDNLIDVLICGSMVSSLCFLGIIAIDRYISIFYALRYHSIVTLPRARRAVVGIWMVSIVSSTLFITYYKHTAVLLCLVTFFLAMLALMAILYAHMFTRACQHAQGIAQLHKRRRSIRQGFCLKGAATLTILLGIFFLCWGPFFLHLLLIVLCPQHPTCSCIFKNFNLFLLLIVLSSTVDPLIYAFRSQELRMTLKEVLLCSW
The molecule B1 had a % Inhibition at 1 µM of 93%.
B2 yielded a % Inhibition at 1 µM of 84%.
B3 gave a % Inhibition at 1 µM of 96%.
As for B4, the % Inhibition at 1 µM stood at 91%.
Take B5: the % Inhibition at 1 µM was 96%.

For the next assay, the target named is oxytocin receptor of rat uterus cell membranes (rat) (UniProt P70536). Put plainly: competition with 3H-oxytocin on rat uterus membranes, metallopeptide at 1 µM.
Chain of oxytocin receptor of rat uterus cell membranes (rat) (P70536 whole entry): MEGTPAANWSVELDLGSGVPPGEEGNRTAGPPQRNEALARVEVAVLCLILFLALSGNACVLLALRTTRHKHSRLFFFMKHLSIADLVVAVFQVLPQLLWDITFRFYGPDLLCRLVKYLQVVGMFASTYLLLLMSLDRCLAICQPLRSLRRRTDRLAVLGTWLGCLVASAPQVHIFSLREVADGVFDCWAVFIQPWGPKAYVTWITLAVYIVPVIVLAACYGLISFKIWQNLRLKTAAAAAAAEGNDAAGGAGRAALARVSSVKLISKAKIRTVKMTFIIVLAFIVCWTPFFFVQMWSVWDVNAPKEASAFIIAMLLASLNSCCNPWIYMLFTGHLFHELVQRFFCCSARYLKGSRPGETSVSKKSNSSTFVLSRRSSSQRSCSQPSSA
Regarding B6, the % Inhibition at 1 µM was 9%.
B7: the % Inhibition at 1 µM came out at 0%.
For the molecule B8, the % Inhibition at 1 µM was found to be 0%.
On the same count and under the same terms, the value for B9 was 0%.
In turn, B10 showed a % Inhibition at 1 µM of 0%.
The same measure, in the same setting: the value for B11 was 0%.
For B12, the % Inhibition at 1 µM is 0%.
For the molecule B13, the % Inhibition at 1 µM is 0%.
On the same count and under the same terms, then B14, with 0%; and B15, with 0%.

A further assay addresses hMC4-R (human) (UniProt P32245). Put plainly: competition with 0.4 nM 125I-NDP-alpha-MSH on hMC4-R membranes, metallopeptide at 1 µM.
As for B1, the % Inhibition at 1 µM was determined as 66%.
On the same count and under the same terms, the value for B2 was 75%; that for B3 was 71%.
As to B4, the % Inhibition at 1 µM was found to be 98%.

The next assay has as its target vasopressin-1 receptor of rat liver cell membranes (rat) (UniProt P30560). Put plainly: competition with 3H-vasopressin-1 antagonist on rat liver membranes, metallopeptide at 1 µM.
Regarding B6, the % Inhibition at 1 µM was determined as 22%.
B7 gave a % Inhibition at 1 µM of 8%.
For the molecule B8, the % Inhibition at 1 µM came out at 23%.
Turning to B9, the % Inhibition at 1 µM was 0%.
B10 came in with a % Inhibition at 1 µM of 0%.
In turn, B11 displayed a % Inhibition at 1 µM of 52%.
B12 came in with a % Inhibition at 1 µM of 0%.
For the molecule B13, the % Inhibition at 1 µM was found to be 23%.
As to B14, the % Inhibition at 1 µM was 0%.
On the same count and under the same terms, then B15, with 0%.

The next assay concerns the target hMC5-R (human) (UniProt P33032). Kind of assay: competition with 0.4 nM 125I-NDP-alpha-MSH on hMC5-R membranes, metallopeptide at 1 µM.
In turn, B1 had a % Inhibition at 1 µM of 57%.
Consider B2, for which the % Inhibition at 1 µM came to 58%.
Still for that read-out and setting: the value for B3 was 64%.
On to B4, for which the % Inhibition at 1 µM turned out to be 93%.

Values taken from patent EP1379283B1, “IDENTIFICATION OF TARGET-SPECIFIC FOLDING SITES IN PEPTIDES AND PROTEINS” (Palatin Technologies, Inc., priority 2000, dated 2002).
